For this assay, the target named is T1, eIF2γ (γ subunit of eIF2, as in the eIF2αγ dimer) (human, UniProt P41091 1-472).
T1 construct: eIF2 gamma subunit (eIF2γ); The γ chain of m6, written alone for the pairs that touch in the crystal structure; also called human eIF2γ; source: E. coli, co-expressed with eIF2α and CDC123 from a multicistronic plasmid, purified as eIF2αγ
As to the kind of experiment: crystal structure; 7.5 mg/mL eIF2αγ combined with PPP1R15A_R3^420-452 at a molar ratio of 1:8 with 0.5 mM GMPPNP and 5 mM MgCl2; sitting drop, 20 °C; 11 to 12% PEG 6000, 0.1 M Tris-HCl pH 8.5; 3.35 Å. The conditions noted are these: both partners purified.

T1 sequence (P41091 whole entry): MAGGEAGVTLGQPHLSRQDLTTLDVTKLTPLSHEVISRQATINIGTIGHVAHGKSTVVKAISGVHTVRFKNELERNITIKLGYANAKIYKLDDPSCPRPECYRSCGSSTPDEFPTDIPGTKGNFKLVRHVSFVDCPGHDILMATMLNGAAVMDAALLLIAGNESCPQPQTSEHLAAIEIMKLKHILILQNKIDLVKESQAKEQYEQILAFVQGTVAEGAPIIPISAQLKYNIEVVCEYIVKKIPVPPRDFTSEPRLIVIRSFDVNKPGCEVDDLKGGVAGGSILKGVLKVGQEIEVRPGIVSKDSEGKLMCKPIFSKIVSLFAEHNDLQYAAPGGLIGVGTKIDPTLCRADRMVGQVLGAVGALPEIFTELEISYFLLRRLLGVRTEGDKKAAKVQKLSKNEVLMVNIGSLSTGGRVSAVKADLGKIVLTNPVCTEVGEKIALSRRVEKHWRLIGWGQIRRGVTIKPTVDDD

B1: PPP1R15A^420-452 (R3) peptide (peptide)
peptide: not shown
notes: residue numbers based on UniProt O75807; Only residues 426-434 were built in the structure
As for B1, the binding result is “binds”.

The values above are taken from article PMC10998612 (Proceedings of the National Academy of Sciences of the …, 2024).
